These are literature values, as cited in paper PMC3530658.

pKd: −log10 of the molar value.

For the data set, the target named is FEN-1 (Homo sapiens) (UniProt P39748).
Sequence of UniProt P39748 (P39748 whole entry): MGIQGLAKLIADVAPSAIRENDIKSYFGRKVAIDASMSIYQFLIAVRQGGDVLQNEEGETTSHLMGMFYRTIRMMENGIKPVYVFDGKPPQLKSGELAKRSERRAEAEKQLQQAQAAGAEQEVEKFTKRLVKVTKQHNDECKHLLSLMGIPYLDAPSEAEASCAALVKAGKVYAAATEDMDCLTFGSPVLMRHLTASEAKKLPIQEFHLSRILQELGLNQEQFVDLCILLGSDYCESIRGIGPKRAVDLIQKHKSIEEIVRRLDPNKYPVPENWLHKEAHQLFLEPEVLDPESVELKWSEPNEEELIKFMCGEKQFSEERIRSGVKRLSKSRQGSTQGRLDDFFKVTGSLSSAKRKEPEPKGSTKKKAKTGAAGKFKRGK

Regarding NEIL1 CTD (from UniProt Q96FI4), the pKd (in general, −log10 of the Kd, conventionally taken in molar units) is 6.70.
